The target in test [1] is T1, protein A56 of the oncolytic virus WOTS-418 (vaccinia virus (WOTS-418, Western …, UniProt Q01218 17-314)).
T1 construct: also called WOTS-418-A56; protein A56 variant
As to the kind of experiment: flow cytometry, PC3 cells treated with WOTS-418 (overlay, FIG. 75). On the technique in general: In flow cytometry, cells or beads pass a laser one at a time.

For test [2], the target named is T2, protein A56 of the oncolytic virus OTS-412 (vaccinia virus (OTS-412), UniProt P08714 17-315).
T2 construct: also called OTS-412-A56; protein A56 variant
T2 chain: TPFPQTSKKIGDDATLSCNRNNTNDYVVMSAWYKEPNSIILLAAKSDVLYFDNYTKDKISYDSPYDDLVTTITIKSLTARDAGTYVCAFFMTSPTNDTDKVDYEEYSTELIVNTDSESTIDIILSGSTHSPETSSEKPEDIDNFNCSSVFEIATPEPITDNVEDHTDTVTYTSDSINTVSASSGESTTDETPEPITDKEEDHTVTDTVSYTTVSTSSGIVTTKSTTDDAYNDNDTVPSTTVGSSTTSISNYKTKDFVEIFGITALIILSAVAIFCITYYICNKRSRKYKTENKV
As to the kind of experiment: flow cytometry, PC3 cells treated with OTS-412 (overlay, FIG. 74).

The target in test [3] is T2, protein A56 of the oncolytic virus …. The test can be described thus: flow cytometry, MCF7 cells treated with OTS-412.
Test [4] addresses T1, protein A56 of the oncolytic virus …. The test can be described thus: flow cytometry, MCF7 cells treated with WOTS-418.
Test [5] has the same target. As to the kind of experiment: flow cytometry, A549 cells treated with WOTS-418.
For test [6], the target named is T2, protein A56 of the oncolytic virus …. As to the kind of experiment: flow cytometry, A549 cells treated with OTS-412.

B1: A56-02C06 (Ab18) (antibody, V domains shown)
VH: QVQLVESGGGLVQPGKSLRLSCAASGFTFSTYGMTWVRQAPGKGLEWVSGISGGGSSTNYADSVKGRFIISRDNSNNTLYLQMNSLRAEDTAVYYCARWGVMLSFDYWGQGTPVTVSS
VL: DIQMTQSPSTLPASVGDRVTITCRASYSVSPWLAWYQQKPGKAPKLLIYKASTLESGVPSRFSGSGSGTEFTLTISSLQPDDFATYYCQQFNSYMMYTFGQGTKLEIK
Consider B1, for which the “binding signal (flow cytometry, %)” value is at least 60% in test [1], at least 60% in test [2], at least 80% in test [3] and at least 80% in test [4].

B2: A56-02B01 (Ab14) (antibody, V domains shown)
VH: QVQLVQSGGGVVQPGRSLRLSCAASGFTFSNYGMHWVRQAPGKGLEWMAFIWFDGSNKFYADSVKGRFTVSRDNSKNTLFLQMNSLRAEDTAVYYCAKAAHLWGAFDIWGQGTMVTVSS
VL: DIQMTQSPDTLSLSPGERATLSCRASQSVSSYLAWYQQKPGQAPRLLIYGASNRATGIPARFSGSGSGTDFALTIGRLEPEDFAVYYCQQYATSPLSFGGGTKVEIK
With B2, the “binding signal (flow cytometry, %)” value in test [1] was at least 60%; in test [5], at least 90%; in test [2], at least 60%; in test [3], at least 80%; in test [6] it was at least 90%; in test [4], at least 80%.

B3: A56-35G07 (Ab51) (antibody, V domains shown)
VH: QMQLVQSGAEVRKPGSSVKVSCKASGDTFSSYAVSWVRQAPGLGLEWMGRTIPRLGATSYAQNFQGRVSITADKSTNTVYMELSGLRSEDTAVYYCARYIPLVRGVRQPRDDFEIWGPGTMITVSS
VL: DIQMTQSPGTLSLSPGERATLSCRASQSVSSSYLAWYQQKPGQAPRLLIYGASSRATGIPDRFSGSGSGTDFTLTISSLEPEDFAVYYCQHRKSWPPGATFGQGTRLEIK
Consider B3, for which the “binding signal (flow cytometry, %)” value was at least 60% in test [1]; at least 90% in test [5]; at least 60% in test [2]; at least 80% in test [3]; at least 90% in test [6]; at least 80% in test [4].

B4: A56-02C07 (Ab19) (antibody, V domains shown)
VH: QVQLVESGAEVRRPGSSVKVSCKTSGVTFSGYVLSWVRQAPGHGLEWMGRIIPLIDVENYAREFQGRMKITADKSTNTVYMELNNLRSEDTAVYYCAKSVVRGLDYYYYGFDVWGQGTTVTVSS
VL: SYELTQPPSLSVAPGKTARITCGGNNIGSKSVHWYQQKPGQAPRLVTYYDGNRPSGIPERFSGSNSGNTATLIISRVEAGDEADYYCQVWDSSSDQGVFGTGTKVTVL
In the case of B4, the “binding signal (flow cytometry, %)” value in test [1] was at least 60%; in test [5], at least 90%; in test [2], at least 60%; in test [3], at least 80%; in test [6], at least 90%; in test [4], at least 80%.

B5: A56-01A02 (Ab01) (antibody, V domains shown)
VH: QMQLVQSGAEVKKPGSSVKVSCKASGGTFSSYAISWVRQAPGQGLEWMGGIIPIFGTANYAQKFQGRVTMTRDTSTSTVYMELSSLKSEDTAVYYCARFVFGSGTYLDSWGQGTLVTVSS
VL: not shown
B5: the “binding signal (flow cytometry, %)” value in test [1] is at least 60%; in test [5], at least 90%; in test [2] it was at least 60%; in test [3] it was at least 80%; in test [6], at least 90%; in test [4], at least 80%.

B6: A56-01A04 (Ab03) (antibody, V domains shown)
VH: QVQLVESGAEVKKPGSSVKVSCKASGGTFSYRYLHWVRQASGQALEWMGWITPFNGYTNYAQKFQDRVTITRDRSMSTAYMELSSLRSEDTAVYYCVTGLGKTNLDSWGQGTLVTVSS
VL: DIVMTQTPLSSPVTLGQPASISCRSSQSLVHSNGNTYLSWLQQRPGQPPRLLIYQISKRFSGVPDRFSGSGAGTDFTLKISRVEAEDVGVYYCMQLTQFPLTFGGGTKVEIK
Take B6: the “binding signal (flow cytometry, %)” value was at least 60% in test [1]; at least 90% in test [5]; at least 60% in test [2]; at least 80% in test [3]; at least 90% in test [6]; at least 80% in test [4].

B7: A56-01F12 (Ab08) (antibody, V domains shown)
VH: QVQLVESGGEVKKPGSSVKVSCKASGGSFSTYAISWVRQAPGQGLEWMGRIIPISDIRNYAQKFQGRVTLTADRATSTAYMELSSLRSEDTAVYYCAKGGRLLSTHFDYWGQGTLVTVSS
VL: QLVLTQPPSVSAAPGQKVTISCSGSSSNIGNNYVSWYQQLPGTAPKLLIYDDDKRPSGIPDRFSGSKSGTSATLGITGLQTGDEADYYCGTWHSGLSAGVVFGGGTKLTVL
Take B7: the “binding signal (flow cytometry, %)” value in test [1] is at least 60%; in test [5], at least 90%; in test [2] it was at least 60%; in test [3] it was at least 80%; in test [6], at least 90%; in test [4] it was at least 80%.

B8: A56-02A02 (Ab13) (antibody, V domains shown)
VH: QMQLVESGAEVKKTGSSVKVSCKASGDTLTYRFLHWVRQAPGQAPEWMGWITPFNDNTNYAQKFQDRVTITRDRSMSTAYMELSSLRSEDTAVYYCATGGGNNYYGMEVWGQGTPITVSS
VL: SYELTQPLSLSVSPGQTASITCSGDKLGDKFTSWYQQQPGQSPVLVIYQDAKRPSGIPERFSGSNSGSTATLTISGTQSMDEADYYCQAWDSSSVVFGGGTKLTVL
As for B8, the “binding signal (flow cytometry, %)” value in test [1] was at least 60%; in test [5], at least 90%; in test [2], at least 60%; in test [3], at least 80%; in test [6], at least 90%; in test [4] it was at least 80%.

B9: A56-44G01 (Ab55) (antibody, V domains shown)
VH: QVQLVESGGGVVQPGRSLRLSCAASGFTFSSYAMHWVRQAPGKGLEWVAVISYDGSNKYYADSVKGRFTISRDNSKNTLYLQMNSLRAEDTAVYYCAKDLWGRVGALVGALDLWGQGTMITVSS
VL: SYELTQGPSLSVSPGQTANIICSGDNLRTKYVSWYQQKPGQSPILVIYQDTRRPSGIPARFSGSNSGNTATLTISGTQAMDEADYYCQAWDSGNYVFGTGTKVTVL
In the case of B9, the “binding signal (flow cytometry, %)” value was at least 60% in test [1]; at least 90% in test [5]; at least 60% in test [2]; at least 80% in test [3]; at least 90% in test [6]; at least 80% in test [4].

Source of the values: patent US20220389085A1 (BIONOXX, published 2022).
